# According to paper PMC3273813 (Nucleic Acids Research, 2011):
# T1: PfSir2A (Plasmodium falciparum Sir2), GST fusion (Plasmodium falciparum, UniProt Q8IE47 1-273)
# T1 sequence (looked up): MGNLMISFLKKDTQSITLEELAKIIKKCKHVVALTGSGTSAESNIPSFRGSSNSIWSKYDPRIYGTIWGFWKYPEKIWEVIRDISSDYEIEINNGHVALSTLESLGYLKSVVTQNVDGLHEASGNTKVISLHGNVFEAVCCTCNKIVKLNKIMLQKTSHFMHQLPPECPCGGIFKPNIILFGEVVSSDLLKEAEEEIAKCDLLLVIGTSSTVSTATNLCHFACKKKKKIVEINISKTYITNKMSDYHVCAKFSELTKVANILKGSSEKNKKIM
# Biological target: T1, PfSir2A (Plasmodium falciparum Sir2), …
# Assay: pull-down
binder,measurement,value
"PfAlba3 (Plasmodium falciparum Alba 3), His-tag fusion protein (natural protein, UniProt Q8IJX8 1-107, looked up) MASTEEVSQERSENSIQVSMTKKPTFYARIGKRMFTGNEEKNPFDEVIITGLGNATKIAIGAASIMEKEDIGQIVKVQTAYFSSDRINRRIPKITIVLKKHPDFVAN",binding result,binds
